Data taken from patent publication US20240400690A1 (BIO THERA SOLUTIONS, published 2024).

T1: B7-H3 on tumour cells (MDA-MB-468 cells, N87 cells) (UniProt Q5ZPR3 29-534, limits assumed)
T1 construct: whole, on cells
T1 sequence (looked up): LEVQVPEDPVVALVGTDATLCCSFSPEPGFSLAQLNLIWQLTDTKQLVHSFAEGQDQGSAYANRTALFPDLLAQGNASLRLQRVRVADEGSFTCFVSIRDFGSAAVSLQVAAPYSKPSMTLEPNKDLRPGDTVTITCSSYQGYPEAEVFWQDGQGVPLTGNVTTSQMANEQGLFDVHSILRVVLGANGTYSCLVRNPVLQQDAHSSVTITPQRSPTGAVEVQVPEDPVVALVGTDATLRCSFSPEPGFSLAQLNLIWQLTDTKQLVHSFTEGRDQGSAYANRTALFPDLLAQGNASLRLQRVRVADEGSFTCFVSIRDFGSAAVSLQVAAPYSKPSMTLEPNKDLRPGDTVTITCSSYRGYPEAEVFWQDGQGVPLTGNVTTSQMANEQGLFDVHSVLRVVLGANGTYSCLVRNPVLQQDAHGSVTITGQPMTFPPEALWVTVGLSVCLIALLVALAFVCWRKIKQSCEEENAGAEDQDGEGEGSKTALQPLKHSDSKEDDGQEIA

T2: mouse B7-H3 (SinoBiological, 50973-M08H) (mouse, UniProt Q8VE98 29-244)
T2 construct: Bought reagent
T2 sequence (looked up): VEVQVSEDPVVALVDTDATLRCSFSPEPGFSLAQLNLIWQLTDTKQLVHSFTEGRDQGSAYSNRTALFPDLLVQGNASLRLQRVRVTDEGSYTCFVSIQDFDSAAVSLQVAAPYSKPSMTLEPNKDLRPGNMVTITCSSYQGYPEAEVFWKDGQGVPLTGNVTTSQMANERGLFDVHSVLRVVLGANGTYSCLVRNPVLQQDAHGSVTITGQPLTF

T3: Lag3 (on Lag3-CHO cells) (UniProt P18627 23-525, limits assumed)
T3 construct: whole, on cells
T3 sequence (looked up): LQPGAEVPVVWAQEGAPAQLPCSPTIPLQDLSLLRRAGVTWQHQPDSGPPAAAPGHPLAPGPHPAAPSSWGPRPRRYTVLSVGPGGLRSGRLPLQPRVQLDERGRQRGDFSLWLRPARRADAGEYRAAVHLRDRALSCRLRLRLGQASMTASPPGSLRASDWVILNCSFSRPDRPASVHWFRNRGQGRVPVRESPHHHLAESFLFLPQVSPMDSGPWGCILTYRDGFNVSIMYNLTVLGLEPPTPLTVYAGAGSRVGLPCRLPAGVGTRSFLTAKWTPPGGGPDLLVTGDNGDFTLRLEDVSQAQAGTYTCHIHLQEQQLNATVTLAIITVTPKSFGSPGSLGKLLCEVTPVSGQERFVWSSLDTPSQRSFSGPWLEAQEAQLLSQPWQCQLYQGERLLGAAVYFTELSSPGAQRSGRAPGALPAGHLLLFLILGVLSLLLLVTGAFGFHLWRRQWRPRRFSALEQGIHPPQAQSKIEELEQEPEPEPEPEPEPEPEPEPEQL

T4: Tim3 (on Tim3-CHO cells) (UniProt Q8TDQ0 22-301, limits assumed)
T4 construct: whole, on cells
T4 sequence (looked up): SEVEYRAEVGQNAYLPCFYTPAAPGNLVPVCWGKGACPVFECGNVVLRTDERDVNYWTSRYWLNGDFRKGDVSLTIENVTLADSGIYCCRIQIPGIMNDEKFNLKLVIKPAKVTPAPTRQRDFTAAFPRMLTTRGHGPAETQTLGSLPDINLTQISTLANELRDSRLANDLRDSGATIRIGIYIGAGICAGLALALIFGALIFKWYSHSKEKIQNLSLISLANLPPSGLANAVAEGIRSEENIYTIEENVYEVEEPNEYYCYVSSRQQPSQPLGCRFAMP

T5: VISTA (on VISTA-CHO cells) (UniProt Q9H7M9 33-311, limits assumed)
T5 construct: whole, on cells
T5 sequence (looked up): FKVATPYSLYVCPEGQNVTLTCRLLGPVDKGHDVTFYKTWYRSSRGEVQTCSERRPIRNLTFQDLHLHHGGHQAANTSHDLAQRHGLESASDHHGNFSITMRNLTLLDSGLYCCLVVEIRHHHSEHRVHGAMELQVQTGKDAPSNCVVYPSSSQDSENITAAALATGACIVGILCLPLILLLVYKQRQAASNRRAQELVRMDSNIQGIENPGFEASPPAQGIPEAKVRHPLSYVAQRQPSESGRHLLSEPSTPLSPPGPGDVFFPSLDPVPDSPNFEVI


Columns and labels:
[1] = biological target: T1, B7-H3 on tumour cells (MDA-MB-468 …); assay: flow cytometry on MDA-MB-468 cells, PE goat anti-human IgG Fc secondary; blank 0.9% in the positive gate
Protocol: MDA-MB-468 cells in logarithmic phase were collected and centrifuged at 1500 rpm for 5 min, and the supernatant was removed. The cells were resuspended in 1×PBS and centrifuged at 1500 rpm for 5 min, and the supernatant was removed, and then the procedure was repeated once. MDA-MB-468 cells were added to a V-bottom 96-well plate at 50 μL/well (200,000 cells) and centrifuged at 1500 rpm for 5 min, and PBS was discarded; the humanized antibody diluted in gradient (initial concentration of 100 nM, 3-fold gradient dilution, 1×PBS as the vehicle) was added at 100 μL/well; the cells were resuspended, and incubated on ice for 1 h; after the incubation was completed, the cells were centrifuged at 2000 rpm for 5 min, and the supernatant was removed; the cells were resuspended in 1×PBS added at 200 µL/well and centrifuged again and the supernatant was removed, and the procedure was repeated twice; a PE-labeled goat anti-human IgG Fc secondary antibody (Invitrogen, cat #12-4998-82, diluted with 1×PBS at 1:500) was added at 100 μL/well; the cells were resuspended, and incubated for 30 min on ice in the absence of light; after the incubation was completed, the cells were centrifuged at 2000 rpm for 5 min, and the supernatant was removed; the cells were resuspended in 1×PBS added at 200 μL/well and centrifuged again and the supernatant was removed, and the procedure was repeated twice; 1×PBS was then added at 200 μL/well to resuspend the cells; the detection was performed with a cytoflex flow cytometer (Beckman).

[2] = biological target: T2, mouse B7-H3 (SinoBiological, 50973-M08H); assay: ELISA, antigen coated at 2 µg/mL; Table 13 prints EC50 as NA
Protocol: The day before the experiment, the target antigens cynomolgus monkey B7-H3 (novoprotein CA61), mouse B7-H3 (SinoBiological, 50973-M08H) and hB7-H3-his were each diluted to 2 μg/mL with 1×PBS and added to a ELISA plate (96-well plate) at 100 μL/well (two rows for each antigen), and the wells were coated overnight at 4° C.

Lag3 (on Lag3-CHO cells) = biological target: T3, Lag3 (on Lag3-CHO cells); assay: flow cytometry on Lag3-CHO cells, PE goat anti-human IgG Fc secondary; blank 0.5% in P3
Protocol: (§1) Cells (VISTA-CHO cells, Tim3-CHO cells or Lag3-CHO cells) in logarithmic phase were collected and centrifuged at 1500 rpm for 5 min, and the supernatant was removed. The cells were resuspended in 1×PBS and centrifuged at 1500 rpm for 5 min, and the supernatant was removed, and then the procedure was repeated once. […]

Tim3 (on Tim3-CHO cells) = biological target: T4, Tim3 (on Tim3-CHO cells); assay: flow cytometry on Tim3-CHO cells, PE goat anti-human IgG Fc secondary; blank 0.2% in P3
Protocol: as §1

[3] = biological target: T5, VISTA (on VISTA-CHO cells); assay: flow cytometry on VISTA-CHO cells, PE goat anti-human IgG Fc secondary; blank 0.1% in P3
Protocol: as §1

Binder	% of cells in positive gate V1-R at 0.411 nM [1]	% of cells in positive gate V1-R at 1.23 nM [1]	% of cells in positive gate V1-R at 11.11 nM [1]	% of cells in positive gate V1-R at 33.33 nM [1]	binding result [2]	% of cells in positive gate V1-R at 3.7 nM [1]	% of cells in positive gate V1-R at 100 nM [1]	% of cells in gate P3 at 100 nM (Lag3 (on Lag3-CHO cells))	% of cells in gate P3 at 100 nM (Tim3 (on Tim3-CHO cells))	% of cells in gate P3 at 100 nM [3]
antibody V2 (antibody, human IgG1, kappa, V domains shown, Humanized from chimeric antibody M1; expressed in HEK293F cells; also called humanized antibody V2) VH: EVQLVQSGAEVKKSGESLKISCKASGYTFTDYDINWVRQMPGKGLEWIGWIFPGDDTTKYNEKFKGQVTLSADKSTNTAYMQWSSLKASDTAMYYCARSPSFDYWGQGTLVTVSS VL: QIVLTQSPGTLSLSPGERATLSCSASSTIGFMYWYQQKPGQAPRRWIYDTSKLASGVPDRFSVSGSGTDYTLTISRLEPEDFAVYYCHQRSSYPTFGQGTKVEIKR	1.2%	1.3%	97.8%	99.7%						
antibody V3 (antibody, human IgG1, kappa, V domains shown, Humanized from chimeric antibody M1; expressed in HEK293F cells; also called humanized antibody V3) VH: EVQLVQSGAEVKKSGESLKISCKASGYTFTDYDINWVRQMPGKGLEWIGWIFPGDDTTKYNEKFKGQVTLSADKSTNTAYMQWSSLKASDTAMYYCARSPSFDYWGQGTLVTVSS VL: QIVLTQSPGTLSLSPGERATLSCSASSTIGFMYWYQQKPGQAPRRWIYDTSKLASGVPDRFSGSGSGTDYTLTISRLEPEDFAVYYCHQRSSYPTFGQGTKVEIKR	36.8%	86.4%	97.2%	98.9%	no binding	94%	99.6%			
antibody V1 (antibody, human IgG1, kappa, V domains shown, Humanized from chimeric antibody M1; expressed in HEK293F cells; also called humanized antibody V1) VH: EVQLVQSGAEVKKSGESLKISCKASGYTFTDYDINWVRQMPGKGLEWMGWIFPGDDTTKYNEKFKGQVTISADKSTNTAYLQWSSLKASDTAMYYCARSPSFDYWGQGTLVTVSS VL: QIVLTQSPGTLSLSPGERATLSCSASSTIGFMYWYQQKPGQAPRRWIYDTSKLASGVPDRFSVSGSGTDYTLTISRLEPEDFAVYYCHQRSSYPTFGQGTKVEIKR	1.4%	8.6%	99.5%	99.6%		92.7%	99.7%			
antibody M1 (antibody, human IgG1, kappa, V domains shown, Chimeric antibody, murine variable regions on the IgG1 constant region; expressed in HEK293F cells; also called chimeric antibody M1) VH: QVQLQQSGPELVKPGASVRISCKASGYTFTDYDINWVQQRPGQGLEWIGWIFPGDDTTKYNEKFKGRATLTADKSSNTAYMQLNGLTSENSAVYFCARSPSFDYWGQGTLVTVSS VL: QIVLTQSPAIMSASPGERVTMTCSASSTIGFMYWYQQKPGTSPKRWIYDTSKLASGVPARFSVSGSGTSYSLTISSMEAEDAATYYCHQRSSYPTFGGGTKLEIKR	26.5%	93.1%	99.5%	99.7%		98.7%	99.7%	0.9%	0.8%	0.6%
control antibody M30-H1-L4 (antibody, human IgG1, kappa, V domains shown, Control anti-B7-H3 antibody; also called HIL4) VH: QVQLVQSGAEVKKPGSSVKVSCKASGYTFTNYVMHWVRQAPGQGLEWMGYINPYNDDVKYNEKFKGRVTITADESTSTAYMELSSLRSEDTAVYYCARWGYYGSPLYYFDYWGQGTLVTVSS VL: EIVLTQSPATLSLSPGERATLSCRASSRLIYMHWYQQKPGQAPRPLIYATSNLASGIPARFSGSGSGTDFTLTISSLEPEDFAVYYCQQWNSNPPTFGQGTKVEIKR	1.1%	4%	97.2%	98.8%			99.3%	0.3%	0.4%	0.2%
antibody V5 (antibody, human IgG1, kappa, V domains shown, Humanized from chimeric antibody M1; expressed in HEK293F cells; also called humanized antibody V5) VH: QVQLVQSGAEVKKPGASVKVSCKASGYTFTDYDINWVRQAPGQRLEWIGWIFPGDDTTKYNEKFKGRATLTADKSASTAYMELSSLRSEDTAVYYCARSPSFDYWGQGTLVTVSS VL: QIVLTQSPSSLSASVGDRVTITCSASSTIGFMYWYQQKPGKAPKRWIYDTSKLASGVPSRFSVSGSGTDYTLTISSLQPEDFATYYCHQRSSYPTFGQGTKVEIKR	31.6%	73.5%	99.3%	99.6%		92.6%	99.7%			
